Laboratory results as given in the supplement of paper PMC9112550, “Optimization of the antimicrobial peptide Bac7 by deep mutational scanning” (BMC Biology, 2022).

Each sequence was assayed on Escherichia coli TOP10 (assay: shrunken log2 fold change of peptide-encoding DNA abundance (4.5 h post-induction vs induction); higher = less antimicrobial activity (less host growth inhibition)). Settings: time post-induction: 4.5 h; library: site-saturation at positions 5, 18, 19, 20.
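Note: peptides expressed intracellularly from a pBAD plasmid library in pooled LB shake-flask culture, induced with 0.3% L-arabinose, DNA abundance read by NGS, three biological replicates, DESeq2 with apeglm shrinkage.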

Row | Sequence | shrunken log2 fold change
1 | RRIRGRPPRLPRPRPRPWADPRP | 0.142
2 | RRIRSRPPRLPRPRPRPWIHPRP | -0.338
3 | RRIRARPPRLPRPRPRPVLEPRP | 0.488
4 | RRIRMRPPRLPRPRPRPYQHPRP | 0.0551
5 | RRIRFRPPRLPRPRPRPDNFPRP | -0.204
6 | RRIRFRPPRLPRPRPRPPSFPRP | -0.259
7 | RRIRDRPPRLPRPRPRPTLWPRP | 2.36
8 | RRIRYRPPRLPRPRPRPIVVPRP | -0.414
9 | RRIRNRPPRLPRPRPRPLIMPRP | -0.48
10 | RRIRLRPPRLPRPRPRPSQCPRP | -0.114
11 | RRIRMRPPRLPRPRPRPKWHPRP | 0.349
12 | RRIRQRPPRLPRPRPRPRYDPRP | -0.0523
13 | RRIRGRPPRLPRPRPRPTSRPRP | 0.336
14 | RRIRTRPPRLPRPRPRPTYRPRP | -0.0768
15 | RRIRDRPPRLPRPRPRPFYQPRP | -0.276
16 | RRIRPRPPRLPRPRPRPKARPRP | 0.691
17 | RRIRSRPPRLPRPRPRPWDCPRP | -0.00801
18 | RRIRTRPPRLPRPRPRPSHVPRP | 2.39
19 | RRIRQRPPRLPRPRPRPFRLPRP | -0.00192
20 | RRIRPRPPRLPRPRPRPYINPRP | -0.739
21 | RRIRMRPPRLPRPRPRPILNPRP | -0.248
22 | RRIRARPPRLPRPRPRPDWMPRP | 0.383

Row | Sequence | shrunken log2 fold change
23 | RRIRTRPPRLPRPRPRPEYRPRP | 0.0555
24 | RRIRMRPPRLPRPRPRPTVAPRP | 0.269
25 | RRIRNRPPRLPRPRPRPAWDPRP | 0.151
26 | RRIRERPPRLPRPRPRPASTPRP | -0.527
27 | RRIRSRPPRLPRPRPRPELDPRP | 0.674
28 | RRIRHRPPRLPRPRPRPPKGPRP | 0.113
29 | RRIRDRPPRLPRPRPRPKVHPRP | -0.216
30 | RRIRLRPPRLPRPRPRPNMSPRP | -0.129
31 | RRIRMRPPRLPRPRPRPSMIPRP | 0.229
32 | RRIRVRPPRLPRPRPRPNRNPRP | -0.238
33 | RRIRNRPPRLPRPRPRPFSIPRP | 0.000741
34 | RRIRGRPPRLPRPRPRPEDDPRP | 2.81
35 | RRIRWRPPRLPRPRPRPAKEPRP | -0.01
36 | RRIRKRPPRLPRPRPRPAYDPRP | -0.116
37 | RRIRARPPRLPRPRPRPTESPRP | 0.659
38 | RRIRMRPPRLPRPRPRPAPAPRP | 1.53
39 | RRIRVRPPRLPRPRPRPEIIPRP | -0.0128
40 | RRIRSRPPRLPRPRPRPPSNPRP | -0.00786
41 | RRIRVRPPRLPRPRPRPSQNPRP | -0.242
42 | RRIRVRPPRLPRPRPRPVWCPRP | 0.423
43 | RRIRRRPPRLPRPRPRPTYSPRP | -0.116
44 | RRIRFRPPRLPRPRPRPFDFPRP | -0.692

Row | Sequence | shrunken log2 fold change
45 | RRIRCRPPRLPRPRPRPIGIPRP | -0.303
46 | RRIRMRPPRLPRPRPRPKALPRP | 0.025
47 | RRIRYRPPRLPRPRPRPCRPPRP | -0.0124
48 | RRIRERPPRLPRPRPRPRDKPRP | -0.187
49 | RRIRERPPRLPRPRPRPAPRPRP | 0.734
50 | RRIRARPPRLPRPRPRPRQSPRP | 0.233
51 | RRIRIRPPRLPRPRPRPNQCPRP | -0.465
52 | RRIRERPPRLPRPRPRPYNTPRP | -0.742
53 | RRIRWRPPRLPRPRPRPLRSPRP | 0.884
54 | RRIRLRPPRLPRPRPRPSYWPRP | -0.651
55 | RRIRNRPPRLPRPRPRPPGGPRP | 0.748
56 | RRIRSRPPRLPRPRPRPILNPRP | -0.183
57 | RRIRIRPPRLPRPRPRPWQWPRP | -0.108
58 | RRIRLRPPRLPRPRPRPGKSPRP | -0.047
59 | RRIRERPPRLPRPRPRPGCGPRP | 0.307
60 | RRIRTRPPRLPRPRPRPCLEPRP | -0.279
61 | RRIRVRPPRLPRPRPRPNACPRP | 0.215
62 | RRIRIRPPRLPRPRPRPISVPRP | 0.0153
63 | RRIRWRPPRLPRPRPRPRCPPRP | 0.264
64 | RRIRFRPPRLPRPRPRPWHNPRP | 0.0654
65 | RRIRWRPPRLPRPRPRPALKPRP | 0.0103
66 | RRIRKRPPRLPRPRPRPEFIPRP | 0.146

Row | Sequence | shrunken log2 fold change
67 | RRIRIRPPRLPRPRPRPWACPRP | -0.406
68 | RRIRWRPPRLPRPRPRPMHSPRP | -0.0572
69 | RRIRARPPRLPRPRPRPPNFPRP | -0.0624
70 | RRIRRRPPRLPRPRPRPWAAPRP | 0.403
71 | RRIRRRPPRLPRPRPRPKEHPRP | 0.345
72 | RRIRCRPPRLPRPRPRPLRYPRP | 0.246
73 | RRIRGRPPRLPRPRPRPMELPRP | 0.271
74 | RRIRKRPPRLPRPRPRPRIEPRP | 0.112
75 | RRIRMRPPRLPRPRPRPGWNPRP | 0.226
76 | RRIRFRPPRLPRPRPRPKPYPRP | -0.109
77 | RRIRDRPPRLPRPRPRPHKQPRP | 0.00319
78 | RRIRSRPPRLPRPRPRPWKIPRP | -0.0842
79 | RRIRYRPPRLPRPRPRPTCIPRP | -0.257
80 | RRIRFRPPRLPRPRPRPKACPRP | -0.174
81 | RRIRTRPPRLPRPRPRPRHDPRP | 0.0144
82 | RRIRKRPPRLPRPRPRPHQEPRP | 0.0459
83 | RRIRTRPPRLPRPRPRPKLCPRP | 0.0416
84 | RRIRVRPPRLPRPRPRPKKPPRP | -0.0463
85 | RRIRVRPPRLPRPRPRPHNPPRP | -0.272
86 | RRIRWRPPRLPRPRPRPCKGPRP | -0.186
87 | RRIRIRPPRLPRPRPRPCCNPRP | -0.0118
88 | RRIRARPPRLPRPRPRPELWPRP | 1.3

Row | Sequence | shrunken log2 fold change
89 | RRIRDRPPRLPRPRPRPHHNPRP | -0.562
90 | RRIRVRPPRLPRPRPRPECIPRP | -0.0283
91 | RRIRYRPPRLPRPRPRPHRVPRP | -0.248
92 | RRIRARPPRLPRPRPRPYDFPRP | -0.772
93 | RRIRMRPPRLPRPRPRPPRRPRP | 1.47
94 | RRIRIRPPRLPRPRPRPVPIPRP | -0.403
95 | RRIRNRPPRLPRPRPRPFCDPRP | -0.133
96 | RRIRCRPPRLPRPRPRPMWVPRP | 0.121
97 | RRIRCRPPRLPRPRPRPQWSPRP | -0.169
98 | RRIRWRPPRLPRPRPRPLHFPRP | 0.136
99 | RRIRIRPPRLPRPRPRPWASPRP | 0.00397
100 | RRIRHRPPRLPRPRPRPGVAPRP | 0.207
101 | RRIRFRPPRLPRPRPRPNEDPRP | 0.144
102 | RRIRHRPPRLPRPRPRPQFIPRP | -0.0365
103 | RRIRIRPPRLPRPRPRPLMYPRP | -0.513
104 | RRIRFRPPRLPRPRPRPEPCPRP | -0.111
105 | RRIRTRPPRLPRPRPRPLWVPRP | 0.0735
106 | RRIRRRPPRLPRPRPRPDITPRP | 0.303
107 | RRIRCRPPRLPRPRPRPKGQPRP | 0.0213
108 | RRIRWRPPRLPRPRPRPRQWPRP | 0.0802
109 | RRIRLRPPRLPRPRPRPALVPRP | -0.0636
